The source of these data is patent US12428446B2, “Peptide compound or pharmaceutically acceptable salt thereof” (Eyebio Korea, priority 2019, dated 2025).

The data set is described as follows: Evaluation of dissolution stability (content change on storage in dissolved state). Format: physicochemical. The conditions noted are these: 1 mg/1 ml dissolved state, 40° C. and RH 75%.

Where no end group is shown, it is not given here. [ ]: non-standard residue; d: D form. Pro(cis-4-F) = O=C(O)[C@@H]1C[C@H](F)CN1; Pro(4,4-F2) = O=C(O)[C@@H]1CC(F)(F)CN1; Hyp = O=C(O)[C@@H]1C[C@@H](O)CN1; dHyp = O=C(O)[C@H]1C[C@H](O)CN1; Aib = CC(C)(N)C(=O)O

[Hyp]GQDVLA [Example 37]: the “Day 1 content (%)” value came out at 98.64%, the “Day 3 content (%)” value was found to be 97.76%, the “Day 7 content (%)” value was determined as 93.55% and the “Initial content (%)” value came out at 98.59%.

For the substance “Hyp-Gly-Gln-Asp-Aib ([Hyp]GQD[Aib]) [Example 85]”, the “Day 1 content (%)” value is on record as 92.08%, the “Day 3 content (%)” value was determined as 88.07%, the “Day 7 content (%)” value is reported as 75.04% and the “Initial content (%)” value worked out at 92.62%.

For “Hyp-Gly-Gln-Glu-Val-Leu-Ala ([Hyp]GQEVLA) [Example 87]”, the “Day 1 content (%)” value amounted to 98.07%, the “Day 3 content (%)” value was found to be 96.57%, the “Day 7 content (%)” value is 94.38% and the “Initial content (%)” value is given as 99.14%.

Turning to “Hyp-Ala-Gln-Asp-Gly ([Hyp]AQDG) [Example 73]”, the “Day 1 content (%)” value came out at 89.07%, the “Day 3 content (%)” value was determined as 82.64%, the “Day 7 content (%)” value was determined as 75.49% and the “Initial content (%)” value was found to be 92.11%.

“cis-4F-Pro-Gly-Gln-Asp-Gly-Leu ([Pro(cis-4-F)]GQDGL) [Example 46]”: the “Day 1 content (%)” value is reported as 87.32%, the “Day 3 content (%)” value is 81.37%, the “Day 7 content (%)” value is 62.32% and the “Initial content (%)” value is on record as 93.29%.

As to “4,4-difluoro-Pro-Gly-Gln-Asp-Gly ([Pro(4,4-F2)]GQDG) [Example 43]”, the “Day 1 content (%)” value was found to be 86.75%, the “Day 3 content (%)” value was determined as 65.09%, the “Day 7 content (%)” value is recorded as 48.43% and the “Initial content (%)” value amounted to 99.47%.

On to “D Hyp-Gly-Gln-Asp-Gly-Leu ([dHyp]GQDGL) [Example 45]”, for which the “Day 1 content (%)” value worked out at 86.74%, the “Day 3 content (%)” value was 69.07%, the “Day 7 content (%)” value worked out at 56.03% and the “Initial content (%)” value was determined as 94.45%.

For QDGLAGPK [Example 16], the “Day 1 content (%)” value is 47.33%, the “Day 3 content (%)” value was determined as 16.48%, the “Day 7 content (%)” value is reported as 10.78% and the “Initial content (%)” value stood at 80.41%.

“4,4-difluoro-Pro-Gly-Gln-Asp-Gly-Leu-Ala ([Pro(4,4-F2)]GQDGLA) [Example 53]”: the “Day 1 content (%)” value is reported as 87.14%, the “Day 3 content (%)” value is given as 76.02%, the “Day 7 content (%)” value was found to be 62.88% and the “Initial content (%)” value amounted to 94.88%.

Take “Hyp-Gly-Gln-Ala-Leu ([Hyp]GQAL) [Example 120]”: the “Day 1 content (%)” value came to 98.87%, the “Day 3 content (%)” value was determined as 98.73%, the “Day 7 content (%)” value was 98.44% and the “Initial content (%)” value is given as 99.07%.

On to DGLAGP [Example 31], for which the “Day 1 content (%)” value came to 85.08%, the “Day 3 content (%)” value was determined as 78.24%, the “Day 7 content (%)” value was 60.99% and the “Initial content (%)” value turned out to be 91.42%.

For the substance GLAGPK [Example 26], the “Day 1 content (%)” value is listed as 89.41%, the “Day 3 content (%)” value was determined as 87.99%, the “Day 7 content (%)” value came out at 85.43% and the “Initial content (%)” value is reported as 92.17%.

Regarding PGQDGL [Example 77], the “Day 1 content (%)” value worked out at 86.66%, the “Day 3 content (%)” value is 80.88%, the “Day 7 content (%)” value was 69.44% and the “Initial content (%)” value is reported as 92.01%.

On to “Hyp-Gly-Gln-Ala-Gly-Leu ([Hyp]GQAGL) [Example 122]”, for which the “Day 1 content (%)” value came to 98.66%, the “Day 3 content (%)” value is listed as 98.56%, the “Day 7 content (%)” value was 98.27% and the “Initial content (%)” value is recorded as 98.82%.

Consider “Hyp-Gly-Gln-Leu-Leu-Leu-Ala ([Hyp]GQLLLA) [Example 96]”, for which the “Day 1 content (%)” value amounted to 97.14%, the “Day 3 content (%)” value is 96.64%, the “Day 7 content (%)” value is 96.02% and the “Initial content (%)” value came to 98.07%.
